# Values of other authors, collected in publication PMC3061978.
# Biological target: methylamine dehydrogenase (MADH) (Paracoccus denitrificans) (UniProt P22619)
# Assay: kinetics
# Sequence of UniProt P22619 (P22619 58-188, chain 1 of 2): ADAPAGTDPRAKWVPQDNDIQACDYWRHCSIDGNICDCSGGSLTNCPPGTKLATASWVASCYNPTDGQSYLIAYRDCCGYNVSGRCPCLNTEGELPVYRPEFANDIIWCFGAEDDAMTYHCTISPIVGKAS
# Sequence of UniProt P22619 (P29894 29-417, chain 2 of 2, further chain): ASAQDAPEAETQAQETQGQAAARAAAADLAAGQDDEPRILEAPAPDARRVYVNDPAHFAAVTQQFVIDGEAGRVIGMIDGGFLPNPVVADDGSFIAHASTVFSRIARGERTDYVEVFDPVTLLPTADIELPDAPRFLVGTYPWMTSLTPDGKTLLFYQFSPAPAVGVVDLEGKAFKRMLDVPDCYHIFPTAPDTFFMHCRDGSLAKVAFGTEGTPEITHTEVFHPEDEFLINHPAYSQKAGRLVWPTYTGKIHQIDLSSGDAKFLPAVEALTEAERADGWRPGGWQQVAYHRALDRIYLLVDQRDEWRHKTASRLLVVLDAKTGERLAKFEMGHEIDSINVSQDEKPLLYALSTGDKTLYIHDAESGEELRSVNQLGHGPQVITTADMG
substance,measurement,value
MauG (from UniProt Q51658),Kd,10.1 µM
